Assay results taken from the DeepSol protein solubility set.

assay: soluble on expression in E. coli; label from the status in PepcDB or PDB records

Row | Sequence | soluble on expression in E. coli
1 | MGSDKIHHHHHHMGQPFVHPTGVTIYNPEKCFNGYTIMQAPGLGCVLIDMNGNVVRVFKDLHGFPNKLLPGGYVMGSRGRRNGKFGYQDQIDLVQVDWDGQVVWEFAKKEYIEDEGEKPQWMARQHHDYQREGNPVGYYVPGMECKTNSGNTLILSHQNCYHKKISDKQLLDDVIIEVDWDGNIVWEWHAVDHFHEYGFSAAAKLALYRNPNMHEAGGGMGDWMHINSASVLGPNKWYDKGDERFHPDNIIWDAREANIMAIISKETGKVVWKMGPDFAQDKKLRKIGQIIGQHHVHMIPQGLPGAGNILIFDNGGWAGYGAPNNVSKDGTKVDMADRSRVLELNPVTMEVVWQLKASELMDYGQPGISDYRFYSPLTSAAQRLPNGNTLITEGCGGRFFEVTRMKEVVWEFISPFNANPATIYYRAYRYPYSYVPQLPEPKETPVPMLDIRKFRVPGAASCEVQHVVGVEGTIGYPAMQQACVAAADQDLSLKDDDDDDLFSRSF | not soluble
2 | MSDTPATRDFGLIDGRAVTGYVLSNRRGTRVCVLDLGGIVQEFSVLADGVRENLVVSFDDAASYADNPFQINKQIGRVAGRIRGAAFDINGRTYRVEANEGRNALHGGSHGLAVTRFNAVAADGRSVVLRSRLQQSADGYPNDLDLDISYRLDEDDRLTVSYRATALGDTVFDPTLHIYWRLDAGLHDAVLHIPQGGHMPADAEKLPVSTVSDDLEVFDFSRPKPLDAAVAALRRETGRAGFDDAYRVPSDIGRPAAVLQAGRRRRISIYSDRNGLVIFTAAPQDFARHDAGVYDALATEAQTLPDSLNWPEFGNIRLNKGDTREATIAYGIESLS | not soluble
3 | MKIKAIEPTPSPNTMKVILNEVLPSGARNNYTNENKEQAPMQVQEILKIEGIKGVYHVADFLAVERNAKYDWKVLLQQVRAVFGEEVLEESEEQQLAHFGEVKVFVQMFFTIPMQVKLTDGTTEERVGLPDRFKESIMKVQMSAPNVVKERKWVEQSTRYGNFEEIGKEVVEEIVAAYSEERVNETVKELLNQAGAVEVTIQKREPYKVTEEMMKDSDWKNRFAALEQMDPTEEDIPVLKMALDDEKVSIRRLATAYLGMVKGDEVLPLLYKALLDRSVSVRRTAGDCLSDVGDPAAMFVMIKSLKDPSKLVRWRAAMFLFELGDESAIPALKAAQDDPEFEVAMQARLALERIEGGEEAKGSVWKQMTESRKGE | not soluble
4 | MRKTLNVVVNGERTEIVTYKGTVQGALHDNGITLAPKDKVTPSLESKISKNETITINKAVNVKVKTEDGEKEIVSAEDNVEDMLKSEGISFDDDDKILPDKKESLKDGMNVEVVKVDVKKVTEVHPIEFTTEVKKDESKPQTYTEVLNDGQDGEKKVTRELVYENGKEVSNNVIQELVVKEPVNKEVVKGTKETQTLSRGGESINFKKKLSVKSTAYNHPLGSAEAYTASGMHVLRDPNGYSTIAVDPSVIPLGTKLYVEGYGYAIAADTGGAIKGNRVDLFFNTEAEASNWGVRNLDVYILNLEHHHHHH | soluble
5 | EDNSRYTHFLTQHYDAKPQGRDDRYCESIMRRRGLTSPCKDINTFIHGNKRSIKAICSQKNVACKNGQTNCYISKSSFQVTTCKLHGGSPWPPCQYRATAGFRNVVVACENGLPVHLDQSIFR | soluble
6 | SKTNHIVIIGYSRIGKCVALSLINRGDPVVIVEESKRLTDKAIADGFEVICGNIIKQDVMNAANMSNAYKVVITMCNTIEVGECIVNIRDMNKDIQIITHTLSDVDTAYLIDLGADIVVTDEEEIANGVIEHITGQRFIKNIAQS | soluble
7 | NTTGGRFVDKDNRKYYVKDDHKAIYWHKIDGKTYYFGDIGEMVVGWQYLEIPGTGYRDNLFDNQPVNEIGLQEKWYYFGQDGALLEQTDKQVLEAKTSENTGKVYGEQYPLSAEKRTYYFDNNYAVKTGWIYEDGNWYYLNKLGNFGDDSYNPLPIGEVAKGWTQDFHVTIDIDRSKPAPWYYLDASGKMLTDWQKVNGKWYYFGSSGSMATGWKYVRGKWYYLDNKNGDMKTGWQYLGNKWYYLRSSGAMVTGWYQDGLTWYYLNAGNGDMKTGWFQVNGKWYYAYSSGALAVNTTVDGYSVNYNGEWVQ | soluble
8 | MRITASLRTFCHLSTPHSDSTTSRLWIDEVTAVARQRDRDSFMRIYDHFAPRLLRYLTGLNVPEGQAEELVQEVLLKLWHKAESFDPSKASLGTWLFRIARNLYIDSVRKDRGWVQVQNSLEQLERLEAPVDRTLDYSQRQEQQLNSAIQNLPTDQAKVLRMSYFEALSHREISERLDMPLGTVKSCLRLAFQKLRSRIEES | not soluble
